How the values were obtained:
Rrp4-exosome WT = target: T1, Rrp4-exosome WT (Sulfolobus solfataricus, UniProt Q9UXC4;Q9UXC2;Q9UXC0 1-249;1-248;1-275); assay: fluorescence anisotropy
T1 sequence 1: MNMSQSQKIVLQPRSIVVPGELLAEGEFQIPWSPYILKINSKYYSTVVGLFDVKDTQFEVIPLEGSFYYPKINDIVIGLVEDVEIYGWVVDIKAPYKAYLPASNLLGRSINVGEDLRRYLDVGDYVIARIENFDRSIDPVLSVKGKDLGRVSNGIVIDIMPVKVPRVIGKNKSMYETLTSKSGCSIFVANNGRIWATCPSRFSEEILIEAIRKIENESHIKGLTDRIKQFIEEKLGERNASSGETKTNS
T1 sequence 2: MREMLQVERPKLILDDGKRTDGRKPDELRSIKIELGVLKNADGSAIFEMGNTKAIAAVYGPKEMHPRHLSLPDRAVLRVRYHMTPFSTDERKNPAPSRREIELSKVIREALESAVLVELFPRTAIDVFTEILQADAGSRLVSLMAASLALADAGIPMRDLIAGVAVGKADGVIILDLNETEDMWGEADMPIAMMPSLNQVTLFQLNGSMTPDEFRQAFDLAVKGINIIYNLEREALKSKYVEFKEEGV
T1 sequence 3: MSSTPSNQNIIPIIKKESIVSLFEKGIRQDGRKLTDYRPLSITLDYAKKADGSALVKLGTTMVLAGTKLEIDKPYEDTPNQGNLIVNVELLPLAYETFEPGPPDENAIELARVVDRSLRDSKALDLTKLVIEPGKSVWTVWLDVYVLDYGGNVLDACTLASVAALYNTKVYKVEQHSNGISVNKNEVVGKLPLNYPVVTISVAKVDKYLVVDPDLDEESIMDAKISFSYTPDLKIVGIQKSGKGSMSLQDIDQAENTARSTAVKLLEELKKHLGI

[1] = target: T2, Sulfolobus solfataricus Rrp41-Rrp42 exosome core (Sulfolobus solfataricus, UniProt Q9UXC2 1-248; Q9UXC0 1-275); assay: pull-down
T2 sequence 1: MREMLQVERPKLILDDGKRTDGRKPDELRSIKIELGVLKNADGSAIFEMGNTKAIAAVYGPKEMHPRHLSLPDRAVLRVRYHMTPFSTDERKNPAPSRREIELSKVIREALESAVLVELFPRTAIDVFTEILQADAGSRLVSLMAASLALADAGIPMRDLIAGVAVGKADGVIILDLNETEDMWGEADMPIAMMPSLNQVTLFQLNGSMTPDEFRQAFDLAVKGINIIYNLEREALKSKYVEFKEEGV
T2 sequence 2: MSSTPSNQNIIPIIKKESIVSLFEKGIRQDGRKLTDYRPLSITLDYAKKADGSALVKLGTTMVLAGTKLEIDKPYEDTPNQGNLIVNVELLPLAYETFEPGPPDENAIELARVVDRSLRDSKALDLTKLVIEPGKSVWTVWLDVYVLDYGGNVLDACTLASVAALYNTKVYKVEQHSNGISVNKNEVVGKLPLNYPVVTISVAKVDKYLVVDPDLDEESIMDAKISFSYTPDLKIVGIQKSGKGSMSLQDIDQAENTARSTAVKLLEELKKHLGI

[2] = target: T3, Rrp4-exosome, Rrp4 3MS K38M (Sulfolobus solfataricus, UniProt Q9UXC4;Q9UXC2;Q9UXC0 1-249;1-248;1-275, M1S;M3S;K38M); assay: NMR methyl TROSY CSP
T3 sequence 1: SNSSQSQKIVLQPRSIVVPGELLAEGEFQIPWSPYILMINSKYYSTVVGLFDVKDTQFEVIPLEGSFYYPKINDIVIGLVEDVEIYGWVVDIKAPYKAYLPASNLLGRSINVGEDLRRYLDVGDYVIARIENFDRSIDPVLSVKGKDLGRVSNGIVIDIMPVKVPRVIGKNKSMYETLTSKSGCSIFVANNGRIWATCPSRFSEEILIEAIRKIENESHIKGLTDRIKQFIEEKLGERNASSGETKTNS
T3 sequence 2: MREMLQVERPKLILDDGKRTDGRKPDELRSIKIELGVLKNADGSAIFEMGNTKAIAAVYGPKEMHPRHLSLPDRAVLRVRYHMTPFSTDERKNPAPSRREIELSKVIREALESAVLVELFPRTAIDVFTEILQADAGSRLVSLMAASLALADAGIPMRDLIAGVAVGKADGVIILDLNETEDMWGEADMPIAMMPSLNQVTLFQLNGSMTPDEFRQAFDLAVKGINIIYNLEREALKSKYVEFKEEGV
T3 sequence 3: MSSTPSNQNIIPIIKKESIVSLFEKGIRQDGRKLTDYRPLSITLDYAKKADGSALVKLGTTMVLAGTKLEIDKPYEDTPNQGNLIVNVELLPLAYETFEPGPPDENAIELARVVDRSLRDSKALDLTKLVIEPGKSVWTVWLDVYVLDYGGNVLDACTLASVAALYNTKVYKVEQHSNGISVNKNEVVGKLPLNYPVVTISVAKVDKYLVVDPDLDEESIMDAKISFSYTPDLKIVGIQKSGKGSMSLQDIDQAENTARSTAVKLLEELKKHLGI

[3] = target: T4, Rrp4-exosome, Rrp4 3MS N171M (Sulfolobus solfataricus, UniProt Q9UXC4;Q9UXC2;Q9UXC0 1-249;1-248;1-275, M1S;M3S;N171M); assay: NMR methyl TROSY CSP
T4 sequence 1: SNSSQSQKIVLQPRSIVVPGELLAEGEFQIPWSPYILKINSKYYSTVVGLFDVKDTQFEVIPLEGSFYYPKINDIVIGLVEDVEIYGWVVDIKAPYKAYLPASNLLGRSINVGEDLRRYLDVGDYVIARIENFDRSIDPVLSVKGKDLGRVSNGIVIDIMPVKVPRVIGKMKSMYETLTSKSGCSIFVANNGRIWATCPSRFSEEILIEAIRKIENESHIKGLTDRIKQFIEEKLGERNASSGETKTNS
T4 sequence 2: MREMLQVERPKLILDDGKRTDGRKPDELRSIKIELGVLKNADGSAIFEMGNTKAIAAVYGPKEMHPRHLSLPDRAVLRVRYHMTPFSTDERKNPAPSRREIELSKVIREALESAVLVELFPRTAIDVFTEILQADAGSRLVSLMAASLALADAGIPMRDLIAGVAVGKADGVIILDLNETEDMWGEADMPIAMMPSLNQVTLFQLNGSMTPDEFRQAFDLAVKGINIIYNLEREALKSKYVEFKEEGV
T4 sequence 3: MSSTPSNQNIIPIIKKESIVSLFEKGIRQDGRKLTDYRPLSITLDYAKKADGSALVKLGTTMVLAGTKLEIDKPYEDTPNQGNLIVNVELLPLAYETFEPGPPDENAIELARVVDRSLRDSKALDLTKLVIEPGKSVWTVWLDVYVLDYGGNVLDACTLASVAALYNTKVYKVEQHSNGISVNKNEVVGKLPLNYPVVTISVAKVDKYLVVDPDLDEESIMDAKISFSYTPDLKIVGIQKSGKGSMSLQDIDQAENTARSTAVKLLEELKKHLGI

[4] = target: T5, Rrp4-exosome, Rrp4 KNK170ENQ (Sulfolobus solfataricus, UniProt Q9UXC4;Q9UXC2;Q9UXC0 1-249;1-248;1-275, M1S;M3S;K170E;K172Q); assay: NMR line-shape titration
T5 sequence 1: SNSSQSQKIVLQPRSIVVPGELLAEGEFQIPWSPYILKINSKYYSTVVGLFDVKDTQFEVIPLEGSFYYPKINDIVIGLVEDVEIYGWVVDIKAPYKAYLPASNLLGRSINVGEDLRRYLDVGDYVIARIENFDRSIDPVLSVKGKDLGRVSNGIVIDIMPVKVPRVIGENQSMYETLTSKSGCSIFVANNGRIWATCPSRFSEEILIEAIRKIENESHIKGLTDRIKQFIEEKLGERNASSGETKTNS
T5 sequence 2: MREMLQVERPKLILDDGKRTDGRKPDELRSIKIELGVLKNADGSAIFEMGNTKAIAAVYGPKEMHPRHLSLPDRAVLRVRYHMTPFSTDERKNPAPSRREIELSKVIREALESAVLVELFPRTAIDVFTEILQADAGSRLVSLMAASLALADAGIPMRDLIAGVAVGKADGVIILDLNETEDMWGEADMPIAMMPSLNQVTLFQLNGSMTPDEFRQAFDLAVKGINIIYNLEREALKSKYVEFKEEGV
T5 sequence 3: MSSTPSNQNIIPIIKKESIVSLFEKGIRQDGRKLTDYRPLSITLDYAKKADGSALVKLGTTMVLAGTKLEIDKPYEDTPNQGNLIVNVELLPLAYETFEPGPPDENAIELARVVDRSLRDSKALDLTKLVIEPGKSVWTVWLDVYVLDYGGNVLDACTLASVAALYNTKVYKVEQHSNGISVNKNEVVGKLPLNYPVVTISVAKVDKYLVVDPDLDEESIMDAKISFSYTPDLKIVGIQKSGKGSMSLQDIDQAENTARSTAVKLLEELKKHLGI

B1: long RNA (4-thio-U, fluorescein) (structured_RNA)
RNA: GCCCCCCCCGAAAGGGGGGGGAAAAAAAAAAAAAAAAAAAAAUAAAAAAAAAAAGCU
modifications: 4-thiouridine at the single U within the A tail (written U)
Binder B1 has a Kd (Rrp4-exosome WT) of 0.0675 ± 0.0227 µM.

B2: Sulfolobus solfataricus Rrp4 exosome cap protein (natural protein, UniProt Q9UXC4 1-249, looked up)
chain: MNMSQSQKIVLQPRSIVVPGELLAEGEFQIPWSPYILKINSKYYSTVVGLFDVKDTQFEVIPLEGSFYYPKINDIVIGLVEDVEIYGWVVDIKAPYKAYLPASNLLGRSINVGEDLRRYLDVGDYVIARIENFDRSIDPVLSVKGKDLGRVSNGIVIDIMPVKVPRVIGKNKSMYETLTSKSGCSIFVANNGRIWATCPSRFSEEILIEAIRKIENESHIKGLTDRIKQFIEEKLGERNASSGETKTNS
B2: binds [1].

B3: NMR substrate RNA (hairpin-A32, cyclic phosphate) (structured_RNA)
RNA: GCCCCCCCCGAAAGGGGGGGGAAAAAAAAAAAAAAAAAAAAAAAAAAAAAAAA
modifications: 2'-3' cyclic phosphate at 3' end
For B3, the binding result [2] was “binds”, the binding result [3] was “binds” and the Kd [4] was 60.5 ± 4.6 µM.
